Reference: paper doi:10.1101/2023.10.31.564985, “Cryo-EM structure of the Spo11 core complex bound to DNA” (bioRxiv, 2023)

T1: Spo11 (subunit of the purified S. cerevisiae Spo11 core complex) (S. cerevisiae, UniProt P23179 1-392)
T1 construct: Spo11, S. cerevisiae; The complex was purified on NiNTA and anti-Flag resin; Surmise: the tags are on Spo11; source: Sf9 cells, baculovirus coinfection with Rec102, Rec104 and Ski8; purified as the core complex (NiNTA, Anti-Flag M2, Superdex 200)
T1 sequence: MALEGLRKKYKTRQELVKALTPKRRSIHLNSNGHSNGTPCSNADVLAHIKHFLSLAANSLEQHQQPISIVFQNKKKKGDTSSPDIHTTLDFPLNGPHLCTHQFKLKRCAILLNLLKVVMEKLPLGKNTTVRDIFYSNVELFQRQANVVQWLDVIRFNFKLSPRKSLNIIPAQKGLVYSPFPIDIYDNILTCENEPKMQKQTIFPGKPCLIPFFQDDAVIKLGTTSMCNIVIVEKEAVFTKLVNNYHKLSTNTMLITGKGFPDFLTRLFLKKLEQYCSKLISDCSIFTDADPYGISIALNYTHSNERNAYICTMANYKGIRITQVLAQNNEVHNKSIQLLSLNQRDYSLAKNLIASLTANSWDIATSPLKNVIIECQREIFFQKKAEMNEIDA

B1: Rec104 (subunit of the purified S. cerevisiae Spo11 core complex) (natural protein)
chain: MSIEEEDTNKITCTQDFLHQYFVTERVSIQFGLNNKTVKRINKDEFDKAVNCIMSWTNYPKPGLKRTASTYLLSNSFKKSATVSLPFILGDPVCMPKRVESNNNDTCLLYSDTLYDDPLIQRNDQAGDEIEDEFSFTLLRSEVNEIRPISSSSTAQILQSDYSALMYERQASNGSIFQFSSP
notes: Rec104, S. cerevisiae; source: Sf9 cells, baculovirus coinfection with Spo11, Rec102 and Ski8; purified as the core complex (NiNTA, Anti-Flag M2, Superdex 200)
B2: Rec102 (subunit of the purified S. cerevisiae Spo11 core complex) (natural protein)
chain: MARDITFLTVFLESCGAVNNDEAGKLLSAWTSTVRIEGPESTDSNSLYIPLLPPGMLKIKLNFKMNDRLVTEEQELFTKLREIVGSSIRFWEEQLFYQVQDVSTIENHVILSLKCTILTDAQISTFISKPRELHTHAKGYPEIYYLSELSTTVNFFSKEGNYVEISQVIPHFNEYFSSLIVSQLEFEYPMVFSMISRLRLKWQQSSLAPISYALTSNSVLLPIMLNMIAQDKSSTTAYQILCRRRGPPIQNFQIFSLPAVTYNK
notes: Rec102, S. cerevisiae; source: Sf9 cells, baculovirus coinfection with Spo11, Rec104 and Ski8; purified as the core complex (NiNTA, Anti-Flag M2, Superdex 200)
B3: Ski8 (subunit of the purified S. cerevisiae Spo11 core complex) (natural protein)
chain: MSKVFIATANAGKAHDADIFSVSACNSFTVSCSGDGYLKVWDNKLLDNENPKDKSYSHFVHKSGLHHVDVLQAIERDAFELCLVATTSFSGDLLFYRITREDETKKVIFEKLDLLDSDMKKHSFWALKWGASNDRLLSHRLVATDVKGTTYIWKFHPFADESNSLTLNWSPTLELQGTVESPMTPSQFATSVDISERGLIATGFNNGTVQISELSTLRPLYNFESQHSMINNSNSIRSVKFSPQGSLLAIAHDSNSFGCITLYETEFGERIGSLSVPTHSSQASLGEFAHSSWVMSLSFNDSGETLCSAGWDGKLRFWDVKTKERITTLNMHCDDIEIEEDILAVDEHGDSLAEPGVFDVKFLKKGWRSGMGADLNESLCCVCLDRSIRWFREAGGK
notes: Ski8, WD-repeat protein, S. cerevisiae; source: Sf9 cells, baculovirus coinfection with Spo11, Rec102 and Rec104; purified as the core complex (NiNTA, Anti-Flag M2, Superdex 200)

What was measured:
[1] = target: T1, Spo11 (subunit of the purified S. …); experiment: cryo-EM structure; core complex (~0.2 mg/ml) incubated with 23-bp hairpin DNA with a two-nucleotide 5' overhang, molar ratio 1:2, 25 mM HEPES-NaOH pH 7.5, 150 mM NaCl, 5 mM MgCl2, 2 mM DTT, 2% glycerol, 1 hr on ice; 3.7 Å; conditions: both partners purified
[2] = target: B2; experiment: as above; conditions: both partners purified

With B1 the “stoichiometry N” value [1] was 1 and the “stoichiometry N” value [2] was 1.

B2 was tested, and the “stoichiometry N” value [1] was 1.

With B3 the “stoichiometry N” value [1] was 1.
